Measurements as given in PMC4694764 (Molecular Biology of the Cell, 2016).

Biological target: GST-MICAL-L2-ACT (aa 261-1009) (mouse, UniProt Q3TN34 261-1009)
Test: pull-down

Chain of GST-MICAL-L2-ACT (aa 261-1009) (Q3TN34 261-1009): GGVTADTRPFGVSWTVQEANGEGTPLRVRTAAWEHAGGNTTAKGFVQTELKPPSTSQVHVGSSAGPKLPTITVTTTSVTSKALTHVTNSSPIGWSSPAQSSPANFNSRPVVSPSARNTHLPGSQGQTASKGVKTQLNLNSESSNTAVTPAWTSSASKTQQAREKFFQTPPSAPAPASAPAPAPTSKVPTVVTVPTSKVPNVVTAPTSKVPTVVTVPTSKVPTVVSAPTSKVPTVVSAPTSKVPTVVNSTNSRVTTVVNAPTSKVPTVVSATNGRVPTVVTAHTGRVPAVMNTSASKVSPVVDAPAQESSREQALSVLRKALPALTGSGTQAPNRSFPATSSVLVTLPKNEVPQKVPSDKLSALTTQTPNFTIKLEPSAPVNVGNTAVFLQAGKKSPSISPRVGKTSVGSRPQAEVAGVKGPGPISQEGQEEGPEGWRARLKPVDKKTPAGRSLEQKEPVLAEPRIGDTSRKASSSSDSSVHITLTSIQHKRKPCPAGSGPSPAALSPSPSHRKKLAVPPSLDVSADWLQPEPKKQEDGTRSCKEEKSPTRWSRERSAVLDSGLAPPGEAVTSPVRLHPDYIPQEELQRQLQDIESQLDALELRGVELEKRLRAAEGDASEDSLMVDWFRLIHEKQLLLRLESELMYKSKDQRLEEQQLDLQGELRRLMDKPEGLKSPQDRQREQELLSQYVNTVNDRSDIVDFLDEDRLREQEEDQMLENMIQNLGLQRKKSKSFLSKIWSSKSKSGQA

B1: GFP-Rab13 (expressed in L6-GLUT4myc muscle cells) (natural protein, UniProt P51153 1-203, looked up)
chain: MAKAYDHLFKLLLIGDSGVGKTCLIIRFAEDNFNNTYISTIGIDFKIRTVDIEGKKIKLQVWDTAGQERFKTITTAYYRGAMGIILVYDITDEKSFENIQNWMKSIKENASAGVERLLLGNKCDMEAKRKVQKEQADKLAREHGIRFFETSAKSSMNVDEAFSSLARDILLKSGGRRSGNGNKPPSTDLKTCDKKNTNKCSLG
- fold of pull-down, lysates of insulin-stimulated against basal cells: ~2 fold
